Data published in patent US20210221894A1 (DRAGONFLY THERAPEUTICS, published 2021).

Tests used:
[1] = target: T1, extracellular domain (ECD) of human DLL3 (AdipoGen Life Sciences) (human, UniProt Q9NYJ7 27-492); assay: SPR (Biacore 8K), 37 C, antibody captured on anti-mouse Fc, DLL3 ECD injected, 1:1 fit; approximate
T1 construct: Bought and further purified by size exclusion chromatography; also called hDLL3 ECD; DLL3 ECD
T1 sequence: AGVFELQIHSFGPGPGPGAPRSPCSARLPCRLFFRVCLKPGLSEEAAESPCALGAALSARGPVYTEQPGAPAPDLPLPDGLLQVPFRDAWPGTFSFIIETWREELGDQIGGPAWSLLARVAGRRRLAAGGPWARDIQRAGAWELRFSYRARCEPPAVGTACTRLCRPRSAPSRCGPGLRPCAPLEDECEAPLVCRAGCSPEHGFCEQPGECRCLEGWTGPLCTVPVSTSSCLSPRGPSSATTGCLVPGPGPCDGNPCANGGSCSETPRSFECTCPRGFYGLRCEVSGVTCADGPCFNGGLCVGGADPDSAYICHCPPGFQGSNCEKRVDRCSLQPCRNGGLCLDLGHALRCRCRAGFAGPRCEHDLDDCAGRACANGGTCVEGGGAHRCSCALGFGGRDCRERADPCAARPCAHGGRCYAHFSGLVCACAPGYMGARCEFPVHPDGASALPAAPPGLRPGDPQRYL
Description: (§1) The binding kinetics of different anti-DLL3 antibodies to recombinant proteins of different domains of human DLL3 were studied by surface plasmon resonance (SPR) using a Biacore™ 8K instrument. These anti-DLL3 antibodies were produced from mouse hybridomas, and each included a heavy chain variable region and light chain variable region described herein. Briefly, antibodies recognizing human IgG Fc and antibodies recognizing mouse IgG Fc were immobilized on different channels of a Biacore™ 8K chip to allow simultaneous analysis of human and murine anti-DLL3 antibodies. Murine anti-DLL3 antibodies were captured on the anti-mouse Fc channel of the Biacore chip. The human anti-DLL3 antibody from Stemcentrx (San Francisco, Calif.) was used as a control and was captured onto anti-human Fc channel of the Biacore™ chip. Different concentrations of DLL3 ECD, DLL3 N-terminal domain, EGF2-6, EGF3-6, EGF4-6, or EGF5-6 domains of DLL3 were injected. Experiments were performed at 37° C. Biacore™ 8K evaluation software was used for all data analysis. To obtain kinetic rate constants double-referenced data were fit to a 1:1 interaction model using Biacore™ 8K Evaluation software (GE Healthcare, Marlborough, Mass.). The equilibrium binding constant KD was determined by the ratio of binding rate constants kd/kₐ.
(§2) Table 36 lists the calculated binding kinetics (KD). […]

[2] = target: T1, extracellular domain (ECD) of human …; assay: SPR (Biacore 8K), 37 C, antibody captured on anti-mouse Fc, DLL3 ECD injected, 1:1 fit; off rate beyond instrument sensitivity
Description: as §1, §2

recombinant human DLL4 = recombinant human DLL4 (human, UniProt Q9NR61 27-524, limits assumed); assay: ELISA, plate-bound recombinant human DLL4 (0.5 µg/mL), anti-mouse IgG-HRP/TMB, % of positive control max
Sequence of recombinant human DLL4 (Q9NR61 27-524 limits assumed): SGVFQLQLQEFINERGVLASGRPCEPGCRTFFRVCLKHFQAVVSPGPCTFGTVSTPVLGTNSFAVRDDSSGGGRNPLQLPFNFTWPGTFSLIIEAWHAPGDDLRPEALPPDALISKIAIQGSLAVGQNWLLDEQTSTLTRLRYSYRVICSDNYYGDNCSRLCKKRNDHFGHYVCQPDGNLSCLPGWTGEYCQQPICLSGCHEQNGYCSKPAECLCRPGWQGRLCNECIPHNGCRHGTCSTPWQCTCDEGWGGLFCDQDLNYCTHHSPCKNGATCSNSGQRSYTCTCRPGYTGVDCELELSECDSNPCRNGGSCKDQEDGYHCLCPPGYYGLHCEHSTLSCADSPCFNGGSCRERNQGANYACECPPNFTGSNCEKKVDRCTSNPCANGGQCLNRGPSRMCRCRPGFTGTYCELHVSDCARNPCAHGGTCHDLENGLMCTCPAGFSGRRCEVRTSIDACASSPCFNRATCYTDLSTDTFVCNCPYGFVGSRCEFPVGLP
Description: (§3) To investigate the binding of anti-DLL3 antibodies to human DLL3, wells of high binding flat-bottom plates were coated with recombinant human DLL3 diluted to 0.5 μg/ml. To assess cross-reactivity of the antibodies to DLL1/DLL4, which are closely related family members to DLL3, plates were coated with recombinant human DLL1 diluted to 1 μg/ml, or human DLL4 diluted to 0.5 μg/ml. […] Binding was detected using anti-mouse IgG-HRP and 3,3′,5,5′-Tetramethylbenzidine (TMB) substrate. Signals were normalized to the corresponding positive control antibody.

recombinant human DLL1 = target: T2, recombinant human DLL1 (human, UniProt O00548 18-540, limits assumed); assay: ELISA, plate-bound recombinant human DLL1 (1 µg/mL), anti-mouse IgG-HRP/TMB, % of positive control max
T2 sequence (looked up): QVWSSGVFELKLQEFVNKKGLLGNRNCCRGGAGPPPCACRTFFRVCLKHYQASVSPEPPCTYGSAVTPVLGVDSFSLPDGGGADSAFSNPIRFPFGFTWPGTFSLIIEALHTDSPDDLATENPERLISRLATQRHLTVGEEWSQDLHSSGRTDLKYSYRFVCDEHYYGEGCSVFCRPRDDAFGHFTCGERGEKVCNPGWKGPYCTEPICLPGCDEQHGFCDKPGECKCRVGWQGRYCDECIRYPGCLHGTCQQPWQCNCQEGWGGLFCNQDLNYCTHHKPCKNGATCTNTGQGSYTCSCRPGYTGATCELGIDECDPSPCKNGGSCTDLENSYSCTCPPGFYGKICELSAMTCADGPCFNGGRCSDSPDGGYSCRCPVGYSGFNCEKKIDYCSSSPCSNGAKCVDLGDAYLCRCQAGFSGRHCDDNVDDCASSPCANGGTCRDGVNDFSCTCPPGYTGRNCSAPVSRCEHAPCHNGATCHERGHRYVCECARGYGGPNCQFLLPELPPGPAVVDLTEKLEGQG
Description: as §3

[3] = target: T3, recombinant human DLL3 (ELISA coat) (human, UniProt Q9NYJ7 27-492); assay: ELISA, plate coated with recombinant human DLL3 0.5 µg/ml, anti-mouse IgG-HRP
T3 sequence: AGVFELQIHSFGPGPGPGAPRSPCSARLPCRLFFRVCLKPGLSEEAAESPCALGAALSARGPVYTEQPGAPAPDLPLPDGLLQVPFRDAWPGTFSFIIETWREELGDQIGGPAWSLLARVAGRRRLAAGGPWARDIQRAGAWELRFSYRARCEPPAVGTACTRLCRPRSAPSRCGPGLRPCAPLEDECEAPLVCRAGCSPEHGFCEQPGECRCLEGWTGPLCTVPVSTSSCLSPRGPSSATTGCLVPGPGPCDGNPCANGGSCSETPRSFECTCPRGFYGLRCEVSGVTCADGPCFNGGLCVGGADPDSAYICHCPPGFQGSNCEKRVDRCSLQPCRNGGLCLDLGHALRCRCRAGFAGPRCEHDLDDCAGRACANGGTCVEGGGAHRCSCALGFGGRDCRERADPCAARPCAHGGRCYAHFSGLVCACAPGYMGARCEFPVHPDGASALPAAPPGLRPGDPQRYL
Description: as §3
Table 38 lists the calculated EC₅₀ based on the binding data from FIG. 24.

[4] = target: T1, extracellular domain (ECD) of human …; assay: SPR (Biacore 8K), 37 C, antibody captured on anti-mouse Fc, DLL3 ECD injected, 1:1 fit
Description: as §1
Table 36 lists the calculated binding kinetics (KD). […] Stemcentrx anti-DLL3 antibody was used as a control.

Kd [1]: < 0.011 nM | koff [2]: ~1.15e-06 s⁻¹ | binding result (recombinant human DLL4): no binding | binding result (recombinant human DLL1): no binding | EC50 [3]: 0.3 nM | kon [4]: 72100 M⁻¹ s⁻¹
B1: anti-DLL3 antibody clone 2F7 (antibody, V domains shown)
VH: QVQLQQSGAELMKPGASVKLSCKATGYTFTGYWIDWIKQRPGHGLEWVGEILPGSDNINYNEKFRGKATFTADTSSNTAYIQLSSLTTEDSAIYFCARCGTGPWFTYWGQGTLVTVSA
VL: NIMMTQSPSSLAVSAGEKVTMSCKSSQSVLYSSNQKNYLAWYQQKPGQSPRLLIYWASTRASGVPDRFTGSGSGTDFTLTITNIQPEDLAVYYCHQFLSSTWTFGGGTKLEIK
notes: Murine antibody produced from a mouse hybridoma
